Source: patent WO2017153426A1 (dated 2017)

Molecular target: native TSLP (supernatant from stimulated human lung fibroblasts) (human, UniProt Q969D9 29-159, limits assumed)
Assay: cell-based or functional assay

B1: DOM30h-440-81/86 (other)
chain: DIQMTQSPSSLSASVGDRVTITCRASRPIRNWLDWYQQKPGKAPKLLIWGASHLQSGVPSRFSGSGSGTDFTLTISSLQPEDFATYYCVQIGEDPVTFGQGTKVEIK
Geometric Mean IC50, inhibition of TSLP-induced pSTAT5 in SW756 cells: 0.86 nM
